Patent US20180022822A1, “NOVEL ANTI-FIBROBLAST ACTIVATION PROTEIN (FAP) BINDING AGENTS AND USES THEREOF” (Mabimmune Diagnostics AG, priority 2016, published 2018)

Key:
[1] = target: T1, transmembrane human FAP on FAP expressing HEK293 cells (Homo sapiens, UniProt Q12884); test: flow cytometry of Cy5 labelled antibodies on FAP-HEK293 cells in pH adjusted PBS; type: cell-based; conditions: pH 7.4 to 6.2; 0.1-100 nM Cy5 labelled antibody
T1 construct: HEK293 cells were transduced with retrovirus encoding full length human FAP cDNA; host or cells: HEK293 (retroviral transduction, G418 selected)
T1 sequence (Q12884 1-760): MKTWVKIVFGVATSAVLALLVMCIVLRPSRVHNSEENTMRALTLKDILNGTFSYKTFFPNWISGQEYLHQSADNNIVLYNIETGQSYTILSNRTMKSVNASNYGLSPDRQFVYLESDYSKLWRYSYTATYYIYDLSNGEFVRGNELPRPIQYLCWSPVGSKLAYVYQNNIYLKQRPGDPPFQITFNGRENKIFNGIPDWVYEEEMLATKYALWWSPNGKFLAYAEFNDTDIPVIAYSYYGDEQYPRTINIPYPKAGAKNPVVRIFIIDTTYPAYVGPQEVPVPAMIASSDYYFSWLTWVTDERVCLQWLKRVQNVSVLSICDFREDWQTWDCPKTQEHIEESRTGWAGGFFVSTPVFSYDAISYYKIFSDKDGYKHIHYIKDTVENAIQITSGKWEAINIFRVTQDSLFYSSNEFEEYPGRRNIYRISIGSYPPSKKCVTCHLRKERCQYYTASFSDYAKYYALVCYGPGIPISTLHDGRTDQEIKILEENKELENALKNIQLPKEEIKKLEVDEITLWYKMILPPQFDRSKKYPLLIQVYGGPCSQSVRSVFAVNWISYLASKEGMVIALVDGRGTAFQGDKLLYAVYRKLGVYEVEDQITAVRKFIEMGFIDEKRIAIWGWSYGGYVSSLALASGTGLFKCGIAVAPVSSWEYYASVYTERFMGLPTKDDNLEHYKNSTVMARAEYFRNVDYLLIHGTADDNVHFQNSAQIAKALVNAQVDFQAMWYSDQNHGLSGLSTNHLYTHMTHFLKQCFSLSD
Protocol: To evaluate the binding of NI-206.82C2, NI-206.59B4, NI-206.27E8, NI-206.12G4, NI-206.18H2 and NI-206.6D3 to transmembrane human FAP, an FAP expressing HEK293 cell line was received from the National Institutes of Health, Bethesda, Md. The generation of this FAP expressing HEK293 cells is described in: J. Exp. Med. 2013 Vol. 210 No. 6 1125-1135. HEK293 cells were transduced with retrovirus encoding full length human FAP cDNA. Cloning was performed using Fast Cloning Pack and FastDigest restriction enzymes (both from Fermentas). Transient retroviral supernatants were generated by transfecting 293GP cells with the FAP plasmid using Lipofectamine 2000 (Invitrogen). Retroviral supernatants were collected at 48 h after transfection and centrifuged onto Retronectin-coated (10 μg/ml; Takara), non-tissue culture-treated 6-well plates at 2,000 G for 2 h at 32° C. These retroviral supernatants where then used to transduce HEK293 cells overnight. Transduced FAP-HEK293 cells were selected with 1 mg/ml G418 (CellGro).
500′000 FAP-HEK293 cells were incubated for 1 hr at 4° C. either with Cy5 labelled NI-206.82C2, NI-206.59B4, NI-206.27E8, NI-206.12G4, NI-206.18H2 or NI-206.6D3 or with Cy5 labelled 43A11 at four different antibody concentrations (0.1, 1, 10, and 100 nM) in seven different pH-adjusted PBS buffers (pH 7.4, 6.8, 6.6, 6.5, 6.4, 6.3 and 6.2). PBS buffers were adjusted to using MES monohydrate (Sigma Aldrich). Following incubation, cells were washed 3 times with 200 uL in matched pH-adjusted PBS, spun at 400G for 4 min, and resuspended in 200 μL of pH adjusted buffer.
To analyze antibody binding, fluorescent activated flow cytometry was performed using a BD Fortesa device for forward scatter, side scatter, and the mean fluorescent intensity (MFI) of the Cy5 channel was recorded using a […] laser excitation and 600/20 filter. Viable cells were gated by forward and side scatter, and singlets/doublet exclusion, and the MFI for Cy5 was quantified using FlowJo software Version 10.1.

[2] = target: T2, directly coated FAP (FAP) (Homo sapiens, UniProt Q12884); test: direct ELISA on directly coated FAP; type: binding; conditions: ELISA, varying antibody concentrations
T2 sequence (Q12884 1-760): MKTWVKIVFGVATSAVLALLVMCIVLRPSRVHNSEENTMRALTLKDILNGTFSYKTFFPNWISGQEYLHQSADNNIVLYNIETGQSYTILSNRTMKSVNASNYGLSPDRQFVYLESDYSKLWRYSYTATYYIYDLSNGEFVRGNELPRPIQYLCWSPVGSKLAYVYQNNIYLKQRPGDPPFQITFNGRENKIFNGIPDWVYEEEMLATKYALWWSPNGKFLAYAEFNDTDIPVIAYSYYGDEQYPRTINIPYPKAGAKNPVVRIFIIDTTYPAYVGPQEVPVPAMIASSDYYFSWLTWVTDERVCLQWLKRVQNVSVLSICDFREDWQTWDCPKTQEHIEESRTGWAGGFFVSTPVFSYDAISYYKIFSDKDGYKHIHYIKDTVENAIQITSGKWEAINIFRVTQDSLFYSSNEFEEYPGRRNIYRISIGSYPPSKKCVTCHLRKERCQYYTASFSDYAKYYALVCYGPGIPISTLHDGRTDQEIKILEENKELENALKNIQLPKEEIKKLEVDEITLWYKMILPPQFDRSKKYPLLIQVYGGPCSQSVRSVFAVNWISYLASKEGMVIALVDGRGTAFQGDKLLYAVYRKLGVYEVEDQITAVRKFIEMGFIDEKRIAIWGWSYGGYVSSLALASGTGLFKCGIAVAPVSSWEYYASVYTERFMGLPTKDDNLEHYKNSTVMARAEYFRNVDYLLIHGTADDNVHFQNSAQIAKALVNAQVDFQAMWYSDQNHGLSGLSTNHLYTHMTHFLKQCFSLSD
Protocol: (§1) ELISA assays were performed with varying antibody concentrations to validate the binding of the exemplary antibodies of the present invention to FAP and to be able to determine their half maximal effective concentration (EC50). For the exemplary recombinant human NI-206-18H2, NI-206-20A8, NI-206-6D3, ‘NI-206-14C5, NI-206-34C11, NI-206.82C2, NI-206.59B4, NI-206.22F7, NI-206.27E8, NI-206.12G4 and NI-206.17A6 antibodies, 96-well microplates (Costar, Corning, USA) were coated with FAP, with a mixture of the 3 peptides or with BSA (Sigma-Aldrich, Buchs, Switzerland) diluted to a concentration of 5 μg/ml in carbonate ELISA coating buffer (15 mM Na2CO3, 35 mM NaHCO3, pH 9.4) for the direct ELISA. For the capture ELISA, the microplates were coated with mouse anti-His monoclonal antibody (Clontech) diluted to a concentration of 3 μg/ml in PBS, the plates were then blocked, FAP or BSA were diluted to a concentration of 2 μg/ml in PBS and added to the plates to be captured. The binding efficiency of the antibodies was then tested.
(§2) The EC50 values were estimated by a non-linear regression using GraphPad Prism (San Diego, USA) software. […] The binding of NI-206.12G4 towards sFAP was not tested.

[3] = tested on: directly coated FAP peptides mixture (cFAP); test: direct ELISA on coated mixture of FAP peptides; type: binding, human; conditions: peptides 378-392, 622-636, 721-736
Protocol: as §1, §2

B1: NI-206.82C2: human-derived recombinant anti-FAP antibody; VH SEQ ID NO: 2 or 4 (PIMC), VL SEQ ID NO: 6 (antibody, V domains shown)
VH: QVQLQQSGPGLVKPSQTLSLTCAISGDSVSSNSVTWNWIRQSPSRGLEWLGRTYYRSKWYNDYAVSVKGRITINPDTSKNQFYLQLKSVTPEDAAVYYCARDSSILYGDYWGQGTLVTVSS
VL: QAVLTQPSSLSASPGASASLTCTLPSGINVGTYRIFWFQQKPGSPPQYLLSYKSDSDNHQGSGVPSRFSGSKDASANAGILLISGLQSEDEADYYCMIWHSSAWVFGGGTKLTVL
paratope-specific avidity (ΔMFI) under acidic conditions vs. at pH 7.4 [1]: increased
binding to the directly coated FAP [2]: less efficiently
EC50 to the directly coated FAP peptides mixture (cFAP) [3]: did not show any binding

B2: NI-206.18H2: human-derived recombinant anti-FAP antibody; VH SEQ ID NO: 41, VL SEQ ID NO: 43 (antibody, listed as Homo sapiens, V domains shown)
VH: QVQLQESGPRLVKPSETLSLTCTVSGYSISNGYYWGWIRQPPGQGLEWIASVWHSGNTYHNPSLKSRVTILVDTLKNQFSLNLKSVTAADTALYYCARSYTRNDVGAFETWGQGTMVTVSS
VL: SYELTQPPSVSVSPGQTARIACSGDELPKRYAYWYQQKSGQAPVLVMYEDTKRPSGIPERLSGSSSGTVTTLTISGAQVEDEADYYCYSTAPSGNHTFVFGTGTRVTVL
paratope-specific avidity (ΔMFI) under acidic conditions vs. at pH 7.4 [1]: increased
binding to the directly coated FAP [2]: specifically, strongly and similarly bind
EC50 to the directly coated FAP peptides mixture (cFAP) [3]: did not show any binding

B3: NI-206.6D3: human-derived recombinant anti-FAP antibody; VH SEQ ID NO: 49, VL SEQ ID NO: 51 (antibody, listed as Homo sapiens, V domains shown)
VH: EVQLVESGGGLVKPGESLRLSCAASGFTFSKAWMNWVRQGPGKGLEWVGRVKSKTDGGTTDYAAPVKGRFTISRDDSKDTVFLQMNSLKTEDTAVYYCSIQFIVVGDRGRDDQYMDVWGKGTTVTVSS
VL: SYVLTQPPSVSVSPGQTARITCSGDALPKQYAFWYQQKPGQAPVIMIYKDNQRPSGIPERFSGSSSGTTVTLTISGVQTEDEADYYCQSADSTNTHVVFGGGTKLTVL
paratope-specific avidity (ΔMFI) under acidic conditions vs. at pH 7.4 [1]: increased
binding to the directly coated FAP [2]: strongly and similarly bind
EC50 to the directly coated FAP peptides mixture (cFAP) [3]: did not show any binding
